Consider one molecule from US20230265404, “ENGINEERED MAD7 DIRECTED ENDONUCLEASE” (BIO-TECHNE CORPORATION, published 2023).

The target in the series is T1, MAD7 E962Q (dead MAD7) (Eubacterium rectale, E962Q).
T1 chain: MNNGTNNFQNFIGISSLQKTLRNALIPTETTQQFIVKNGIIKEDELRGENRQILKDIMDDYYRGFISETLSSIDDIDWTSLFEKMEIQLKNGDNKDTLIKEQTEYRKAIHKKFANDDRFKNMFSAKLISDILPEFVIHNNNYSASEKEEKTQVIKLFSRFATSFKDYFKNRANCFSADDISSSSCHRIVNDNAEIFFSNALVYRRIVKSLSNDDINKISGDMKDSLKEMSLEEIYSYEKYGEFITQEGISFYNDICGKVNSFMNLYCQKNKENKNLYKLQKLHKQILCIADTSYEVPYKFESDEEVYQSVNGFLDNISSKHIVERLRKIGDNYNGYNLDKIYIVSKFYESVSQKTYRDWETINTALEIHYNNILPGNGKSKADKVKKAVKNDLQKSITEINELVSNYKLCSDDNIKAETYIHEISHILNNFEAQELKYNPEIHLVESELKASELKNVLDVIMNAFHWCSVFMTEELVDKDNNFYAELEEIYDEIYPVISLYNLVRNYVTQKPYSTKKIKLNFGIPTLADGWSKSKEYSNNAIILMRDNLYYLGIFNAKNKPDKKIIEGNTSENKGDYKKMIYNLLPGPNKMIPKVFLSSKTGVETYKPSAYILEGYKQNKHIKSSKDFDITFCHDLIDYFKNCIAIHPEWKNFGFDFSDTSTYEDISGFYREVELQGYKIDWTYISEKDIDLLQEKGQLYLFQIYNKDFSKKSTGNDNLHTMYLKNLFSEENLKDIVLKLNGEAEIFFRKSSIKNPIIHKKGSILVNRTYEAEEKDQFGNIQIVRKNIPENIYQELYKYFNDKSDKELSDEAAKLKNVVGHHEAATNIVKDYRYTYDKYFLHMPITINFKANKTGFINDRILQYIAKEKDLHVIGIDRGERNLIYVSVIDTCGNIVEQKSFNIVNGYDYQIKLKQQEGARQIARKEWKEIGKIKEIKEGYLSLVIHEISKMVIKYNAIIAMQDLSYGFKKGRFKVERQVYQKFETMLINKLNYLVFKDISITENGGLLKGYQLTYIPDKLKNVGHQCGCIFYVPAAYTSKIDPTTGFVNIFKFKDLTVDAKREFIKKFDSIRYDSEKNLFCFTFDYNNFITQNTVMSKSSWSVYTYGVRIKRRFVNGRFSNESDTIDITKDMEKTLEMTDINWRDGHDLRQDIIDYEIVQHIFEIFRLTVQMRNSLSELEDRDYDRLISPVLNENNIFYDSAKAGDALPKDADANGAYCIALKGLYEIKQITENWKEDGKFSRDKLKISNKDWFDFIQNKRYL
Put plainly: EMSA; bound without cutting; PAM TTTA (5', from target sequence); NEB3.1, salmon sperm DNA competitor, 37 C. The following applies: tags: C-terminal 6xHis. The protocol: To evaluate catalytic activity the modified MAD7 enzyme, an electrophoretic mobility shift assay (EMSA) was performed. The following reagents were used: [0142] […] salmon sperm DNA (United States Biological D3950-02 DNA, Salmon [0143] (Deoxyribonucleic acid) CAS: 9007-49-2 [0144] 100 pmol MAD7 variant [0145] 5 pmol double stranded, 6FAM labeled target (created as described above) [0146] 50 pmol MAD7 PPIB gRNA [0147] 2 μL NEB3.1 10X (New England Biolabs) [0148] 20 μL total reaction
The MAD7 variant was incubated with MAD7 PPIB gRNA at 37° C. for 15 minutes. Other reagents were added and incubated 37° for 30 minutes. Reactions were analyzed by gel electrophoresis. Samples were run on a 5% Mini-PROTEAN TBE Mini-Gels (Bio-Rad). Gels were pre-run for 15 minutes at 100V in 0.5X TBE running buffer, samples were loaded and run at 200V for 15 minutes. Gels were imaged with ProteinSimple FluorChem M system using blue excitation and green emission filter to detect 6FAM label. Gel was then stained for 15 minutes in ethidium bromide solution and imaged again using blue excitation and orange emission filter to detect DNA, finally the gel was stained with Coomassie stain and imaged with white light. […]
A general note: In EMSA bound probe runs differently from free probe, usually more slowly.

B1: MAD7 PPIB gRNA ; 6FAM PPIB target duplex (ssRNA ; dsDNA)
RNA: UAAUUUCUACUCUUGUAGAUCCGUCACCAAAAUCAGAUUCA
DNA 1: AGATTCTCATAGGATTTTTACCGTCACCAAAATCAGATTCAGAACCACTTCTCTAAA
DNA 2: TTTAGAGAAGTGGTTCTGAATCTGATTTTGGTGACGGTAAAAATCCTATGAGAATCT
On to B1, for which the binding result is given as “binds”.
